Laboratory results published in paper PMC9542197 (Chembiochem, 2022).

Tests used:
[1] = biological target: T1, TmMtaD (SAH deaminase from Thermotoga maritima) (Thermotoga maritima, UniProt Q9X034); assay: GDH-coupled NADH oxidation at […] nm; assay type: biochemical; conditions: 50 mM potassium phosphate pH 7.5, 50 mM KCl, 20 mM MgCl2
T1 sequence (Q9X034 1-406): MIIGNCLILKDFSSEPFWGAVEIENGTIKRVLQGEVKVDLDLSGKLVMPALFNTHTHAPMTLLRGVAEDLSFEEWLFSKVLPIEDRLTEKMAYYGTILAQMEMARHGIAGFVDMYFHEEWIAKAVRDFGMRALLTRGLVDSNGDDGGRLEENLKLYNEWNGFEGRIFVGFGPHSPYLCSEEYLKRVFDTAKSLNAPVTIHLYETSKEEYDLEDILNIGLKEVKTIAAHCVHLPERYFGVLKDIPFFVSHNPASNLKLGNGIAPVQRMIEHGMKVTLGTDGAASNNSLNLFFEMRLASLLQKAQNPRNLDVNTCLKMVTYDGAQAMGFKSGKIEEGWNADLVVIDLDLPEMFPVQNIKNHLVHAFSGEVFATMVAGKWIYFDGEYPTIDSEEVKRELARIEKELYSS

[2] = test system: NCCc1ccc(O)c(O)c1; assay: purified protein; conditions: 200 μM SAM, 50 mM HEPES pH 7.5, 100 mM KCl, 20 mM MgCl2, 25 °C
[3] = substrate: NCCc1ccc(O)c(O)c1; assay: purified protein; assay type: biochemical, Rattus norvegicus; conditions: 200 μM SAM, 50 mM HEPES pH 7.5, 100 mM KCl, 20 mM MgCl2, 25 °C

Molecule: Nc1ncnc2c1ncn2[C@@H]1O[C@H](CSCC[C@H](N)C(=O)O)[C@@H](O)[C@H]1O [SAH]
- Km [1]: 180 ± 60 µM

Molecule: MxSafC (SafC O-MT from Myxococcus xanthus) (Myxococcus xanthus)
- Km [2]: 270 ± 14 µM
- kcat [2]: 0.039 ± 0.001 s⁻¹

B1: RnCOMT (catechol-O-MT from Rattus norvegicus) (Rattus norvegicus) (protein)
chain: MGDTKEQRILRYVQQNAKPGDPQSVLEAIDTYCTQKEWAMNVGDAKGQIMDAVIREYSPSLVLELGAYCGYSAVRMARLLQPGARLLTMEMNPDYAAITQQMLNFAGLQDKVTILNGASQDLIPQLKKKYDVDTLDMVFLDHWKDRYLPDTLLLEKCGLLRKGTVLLADNVIVPGTPDFLAYVRGSSSFECTHYSSYLEYMKVVDGLEKAIYQGPSSPDKS
- Km [3]: 144 ± 15 µM
- kcat [3]: 0.072 ± 0.002 s⁻¹
